Assay results as given in article PMC8228714, “Structural Constraint of Osteopontin Facilitates Efficient Binding to CD44” (Biomolecules, 2021).

Assays:
[1] = biological target: Recombinant extracellular domain of CD44 (aa21–606), His- and SUMO-tags (Lifespan Biosciences); experiment: ELISA; receptor (CD44v or integrin) plated on a high-binding 96-well plate, GST-OPN in solution 2 h at room temperature; 10 mM HEPES pH 7.4, 150 mM NaCl, 2 mM MnCl2, 0.05% Tween 20; detection with HRP-anti-GST; constants from double-reciprocal plots
[2] = biological target: truncated version of CD44v (MyBiosource); experiment: as above
Sequence of truncated version of CD44v (MyBiosource) (P16070 21-742): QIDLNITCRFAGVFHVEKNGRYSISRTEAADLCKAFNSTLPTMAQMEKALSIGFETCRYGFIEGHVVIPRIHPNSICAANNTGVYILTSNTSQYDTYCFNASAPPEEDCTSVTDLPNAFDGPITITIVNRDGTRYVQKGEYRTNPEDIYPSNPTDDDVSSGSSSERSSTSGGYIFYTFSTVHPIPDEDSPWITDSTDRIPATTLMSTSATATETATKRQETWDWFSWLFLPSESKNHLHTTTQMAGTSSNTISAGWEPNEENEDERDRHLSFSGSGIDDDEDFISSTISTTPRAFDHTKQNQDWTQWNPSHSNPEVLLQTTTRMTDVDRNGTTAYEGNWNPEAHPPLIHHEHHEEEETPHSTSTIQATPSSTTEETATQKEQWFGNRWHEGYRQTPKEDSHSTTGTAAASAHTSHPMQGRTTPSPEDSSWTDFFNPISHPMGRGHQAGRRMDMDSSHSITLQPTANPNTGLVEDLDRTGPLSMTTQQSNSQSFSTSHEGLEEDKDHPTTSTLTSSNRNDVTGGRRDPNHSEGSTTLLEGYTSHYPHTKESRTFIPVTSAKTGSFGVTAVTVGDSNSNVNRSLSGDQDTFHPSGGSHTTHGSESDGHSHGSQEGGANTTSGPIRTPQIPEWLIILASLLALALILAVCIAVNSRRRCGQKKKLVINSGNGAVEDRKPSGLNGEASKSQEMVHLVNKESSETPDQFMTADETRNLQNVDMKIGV

[3] = biological target: extracellular portion of integrin αVβ3 (R&D Systems) (UniProt P06756); experiment: as above
[4] = biological target: T1, extracellular portion of integrin α9β1 (R&D Systems) (UniProt Q13797 30-977; P05556 21-728); experiment: SPR; BIACORE 2000, CM5 chip; about 8000 RU of GST-OPN, CD44v or integrin α9β1 immobilised by amine coupling, BSA control flow cell; one protein in the flow, 50 μL/min, 120 s; 10 mM HEPES, 150 mM NaCl, pH 7.4, 0.05% Tween 20, 0.4 mM MnCl2, 25 °C; conditions: both partners purified
T1 construct: also called α9β1 extracellular domain; source: bought: R&D Systems
T1 sequence (Q13797 30-977, chain 1 of 2): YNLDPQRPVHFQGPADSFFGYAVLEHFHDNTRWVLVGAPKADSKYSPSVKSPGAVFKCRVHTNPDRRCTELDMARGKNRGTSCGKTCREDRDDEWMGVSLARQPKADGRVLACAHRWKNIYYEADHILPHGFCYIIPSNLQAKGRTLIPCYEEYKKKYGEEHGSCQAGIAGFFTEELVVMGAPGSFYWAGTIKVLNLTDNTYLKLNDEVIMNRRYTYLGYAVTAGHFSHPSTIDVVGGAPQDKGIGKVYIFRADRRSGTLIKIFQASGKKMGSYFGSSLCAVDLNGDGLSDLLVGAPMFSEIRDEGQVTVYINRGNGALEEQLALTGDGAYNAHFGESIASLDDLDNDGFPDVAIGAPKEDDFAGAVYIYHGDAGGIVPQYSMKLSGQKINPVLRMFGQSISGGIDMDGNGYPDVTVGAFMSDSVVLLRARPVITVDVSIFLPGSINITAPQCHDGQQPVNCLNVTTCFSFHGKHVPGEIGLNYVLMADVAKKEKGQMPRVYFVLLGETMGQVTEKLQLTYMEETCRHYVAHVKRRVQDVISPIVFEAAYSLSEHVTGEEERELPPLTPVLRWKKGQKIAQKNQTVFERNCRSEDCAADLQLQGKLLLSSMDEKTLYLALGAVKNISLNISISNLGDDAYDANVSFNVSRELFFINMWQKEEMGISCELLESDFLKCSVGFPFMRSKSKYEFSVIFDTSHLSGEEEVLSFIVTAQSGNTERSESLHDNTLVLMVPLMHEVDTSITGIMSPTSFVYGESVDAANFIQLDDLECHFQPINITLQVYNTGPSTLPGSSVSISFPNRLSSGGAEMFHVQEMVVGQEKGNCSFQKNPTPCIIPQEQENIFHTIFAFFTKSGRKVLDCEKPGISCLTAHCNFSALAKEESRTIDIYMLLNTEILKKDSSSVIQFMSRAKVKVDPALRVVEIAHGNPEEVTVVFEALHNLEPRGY
T1 sequence (P05556 21-728, chain 2 of 2): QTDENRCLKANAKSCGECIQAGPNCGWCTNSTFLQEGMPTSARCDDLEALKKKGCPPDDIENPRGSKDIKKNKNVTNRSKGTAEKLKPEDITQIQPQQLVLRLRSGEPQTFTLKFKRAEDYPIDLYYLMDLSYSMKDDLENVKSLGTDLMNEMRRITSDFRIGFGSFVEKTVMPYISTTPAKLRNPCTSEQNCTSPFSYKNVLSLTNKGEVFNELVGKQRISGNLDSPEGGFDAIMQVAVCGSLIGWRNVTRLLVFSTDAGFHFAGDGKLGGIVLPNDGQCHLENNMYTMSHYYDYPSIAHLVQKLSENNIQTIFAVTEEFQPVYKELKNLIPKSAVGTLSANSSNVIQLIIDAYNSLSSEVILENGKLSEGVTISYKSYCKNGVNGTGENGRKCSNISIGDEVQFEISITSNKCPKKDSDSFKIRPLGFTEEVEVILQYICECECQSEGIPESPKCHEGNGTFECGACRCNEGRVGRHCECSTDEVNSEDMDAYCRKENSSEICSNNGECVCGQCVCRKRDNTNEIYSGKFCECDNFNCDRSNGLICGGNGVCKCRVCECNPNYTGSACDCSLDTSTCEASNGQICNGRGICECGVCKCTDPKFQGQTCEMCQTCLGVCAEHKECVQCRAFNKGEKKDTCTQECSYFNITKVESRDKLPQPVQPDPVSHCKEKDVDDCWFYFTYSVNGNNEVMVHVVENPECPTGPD

## Bacterial recombinant GST-OPNa (after deletion of the signal sequence) (from UniProt P10451-1 17-314) (ligand)
[1]
  half-maximal binding concentration (CD44 titrated 0–1000 ng, OPN 125 ng): 95.5 ng
  half-maximal binding concentration (CD44 titrated 0–1000 ng, OPN 250 ng): 60.9 ng
  half-maximal binding concentration (CD44 titrated 0–1000 ng, OPN 500 ng): 107 ng
  half-maximal binding concentration (CD44 titrated 0–1000 ng, OPN 1000 ng): 151 ng
  half-maximal binding concentration (CD44 titrated 0–1000 ng, OPN 2000 ng): 123 ng
  half-maximal binding concentration (CD44 titrated 0–1000 ng, OPN 4000 ng): 138 ng
  half-maximal binding concentration (OPN titrated 125–500 ng, CD44 65 ng): 0.77 ng
  half-maximal binding concentration (OPN titrated 125–500 ng, CD44 125 ng): 8.09 ng
  half-maximal binding concentration (OPN titrated 125–500 ng, CD44 250 ng): 40.5 ng
  half-maximal binding concentration (OPN titrated 125–500 ng, CD44 500 ng): 50.8 ng
  half-maximal binding concentration (OPN titrated 125–500 ng, CD44 1000 ng): 60.3 ng
[2]
  fold lower affinity than for LSBio CD44v: 8 fold

## GST-OPNb (ligand)
[3]
  half-maximal binding concentration (OPN titrated 7.8–500 ng, aVb3 200 ng, taken from the row above): 502 ng

## GST-OPNc (from UniProt P10451-3 17-287) (ligand)
[3]
  half-maximal binding concentration (OPN titrated 7.8–500 ng, aVb3 200 ng, taken from the rows above): 314 ng

B1: extracellular portion of integrin αVβ3 (R&D Systems) (receptor)
chain 1: FNLDVDSPAEYSGPEGSYFGFAVDFFVPSASSRMFLLVGAPKANTTQPGIVEGGQVLKCDWSSTRRCQPIEFDATGNRDYAKDDPLEFKSHQWFGASVRSKQDKILACAPLYHWRTEMKQEREPVGTCFLQDGTKTVEYAPCRSQDIDADGQGFCQGGFSIDFTKADRVLLGGPGSFYWQGQLISDQVAEIVSKYDPNVYSIKYNNQLATRTAQAIFDDSYLGYSVAVGDFNGDGIDDFVSGVPRAARTLGMVYIYDGKNMSSLYNFTGEQMAAYFGFSVAATDINGDDYADVFIGAPLFMDRGSDGKLQEVGQVSVSLQRASGDFQTTKLNGFEVFARFGSAIAPLGDLDQDGFNDIAIAAPYGGEDKKGIVYIFNGRSTGLNAVPSQILEGQWAARSMPPSFGYSMKGATDIDKNGYPDLIVGAFGVDRAILYRARPVITVNAGLEVYPSILNQDNKTCSLPGTALKVSCFNVRFCLKADGKGVLPRKLNFQVELLLDKLKQKGAIRRALFLYSRSPSHSKNMTISRGGLMQCEELIAYLRDESEFRDKLTPITIFMEYRLDYRTAADTTGLQPILNQFTPANISRQAHILLDCGEDNVCKPKLEVSVDSDQKKIYIGDDNPLTLIVKAQNQGEGAYEAELIVSIPLQADFIGVVRNNEALARLSCAFKTENQTRQVVCDLGNPMKAGTQLLAGLRFSVHQQSEMDTSVKFDLQIQSSNLFDKVSPVVSHKVDLAVLAAVEIRGVSSPDHVFLPIPNWEHKENPETEEDVGPVVQHIYELRNNGPSSFSKAMLHLQWPYKYNNNTLLYILHYDIDGPMNCTSDMEINPLRIKISSLQTTEKNDTVAGQGERDHLITKRDLALSEGDIHTLGCGVAQCLKIVCQVGRLDRGKSAILYVKSLLWTETFMNKENQNHSYSLKSSASFNVIEFPYKNLPIEDITNSTLVTTNVTWGIQPAPMPV
chain 2: GPNICTTRGVSSCQQCLAVSPMCAWCSDEALPLGSPRCDLKENLLKDNCAPESIEFPVSEARVLEDRPLSDKGSGDSSQVTQVSPQRIALRLRPDDSKNFSIQVRQVEDYPVDIYYLMDLSYSMKDDLWSIQNLGTKLATQMRKLTSNLRIGFGAFVDKPVSPYMYISPPEALENPCYDMKTTCLPMFGYKHVLTLTDQVTRFNEEVKKQSVSRNRDAPEGGFDAIMQATVCDEKIGWRNDASHLLVFTTDAKTHIALDGRLAGIVQPNDGQCHVGSDNHYSASTTMDYPSLGLMTEKLSQKNINLIFAVTENVVNLYQNYSELIPGTTVGVLSMDSSNVLQLIVDAYGKIRSKVELEVRDLPEELSLSFNATCLNNEVIPGLKSCMGLKIGDTVSFSIEAKVRGCPQEKEKSFTIKPVGFKDSLIVQVTFDCDCACQAQAEPNSHRCNNGNGTFECGVCRCGPGWLGSQCECSEEDYRPSQQDECSPREGQPVCSQRGECLCGQCVCHSSDFGKITGKYCECDDFSCVRYKGEMCSGHGQCSCGDCLCDSDWTGYYCNCTTRTDTCMSSNGLLCSGRGKCECGSCVCIQPGSYGDTCEKCPTCPDACTFKKECVECKKFDRGALHDENTCNRYCRDEIESVKELKDTGKDAVNCTYKNEDDCVVRFQYYEDSSGKSILYVVEEPECPKGPD
notes: also called aVb3; source: bought: R&D Systems
[4]
  binding result: binds
